# Laboratory results reported in IntAct's records for PubMed 10409743.
# B1: Cell cycle serine/threonine-protein kinase hsk1 (Schizosaccharomyces pombe (strain ATCC 38366 / 972)), P50582 (parent)
# chain: MAEAHITLSPKVTHEQQTDIDSECEITEVDDENVNENKSQEMIQDIPARDREEIENITRTFVELQENYRLIEKIGEGTFSSVYKAEDLHYGRYINDWDIQSEVLKESSFGKEKIPVNEDSRKPKYVAIKKIYATSSPARIYNELEILYLLRGSSVIAPLITALRNEDQVLVVLPYYEHTDFRQYYSTFSYRDMSIYFRCLFQAMQQTQTLGIIHRDIKPSNFLFDVRTKHGVLVDFGLAERYDGRQQSHSCRCTNSNAAELAHDFSIAQETSLGYIKNDTRPSKRANRAGTRGFRAPEVLFKCSSQSPKVDIWSAGVILLSFLTKRFPMFNSKDDVDALMEIACIFGKSEMRQCAALHGCTFETNVSTLTEKRVNFRKLILWASCGSASIYKEKLRHKPSQEERLCLDFLEKCLELDCNKRISAEEALDHDFLYLDNLAYEKKDDDTAFDNSFGETSFEKDEDLTAKHLSHILDFKEQEETDEPTSLSKRKRSIDEILPNDALQDGA
# partner: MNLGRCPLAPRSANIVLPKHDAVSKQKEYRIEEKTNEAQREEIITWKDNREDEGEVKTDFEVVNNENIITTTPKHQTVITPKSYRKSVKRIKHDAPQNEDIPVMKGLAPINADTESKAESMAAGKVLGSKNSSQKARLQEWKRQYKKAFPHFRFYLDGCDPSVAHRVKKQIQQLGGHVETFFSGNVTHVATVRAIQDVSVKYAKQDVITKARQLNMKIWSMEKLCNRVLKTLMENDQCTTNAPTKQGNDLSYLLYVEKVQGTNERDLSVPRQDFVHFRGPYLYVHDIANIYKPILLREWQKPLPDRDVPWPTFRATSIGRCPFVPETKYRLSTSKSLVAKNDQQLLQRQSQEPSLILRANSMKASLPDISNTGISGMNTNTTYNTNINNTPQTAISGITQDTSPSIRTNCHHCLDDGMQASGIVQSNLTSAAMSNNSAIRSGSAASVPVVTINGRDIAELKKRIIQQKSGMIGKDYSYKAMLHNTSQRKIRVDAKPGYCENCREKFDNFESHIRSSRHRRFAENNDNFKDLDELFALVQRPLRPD
# Variants of: B1
# Details: with him1_schpo him1, O59836
row,Variant,effect of a mutation on the interaction
1,K129A;K130S,with no effect
